Reference: PMC2881700 (Journal of immunology (Baltimore, Md. : 1950), 2010)

How the values were obtained:
Assay in all cases: radioligand binding
[1] = target: full-length D299G.T399I TLR4 expressed on HEK293T cells without MD-2 (human, UniProt O00206 24-839, D299G | T399I)
[2] = target: FlagTLR4ecd, wild type (extracellular domain of human TLR4, residues 24-631) (human, UniProt O00206 24-631)
[3] = target: MD-2Flag.His6/FlagTLR4ecd D299G.T399I complex (human, UniProt Q9Y6Y9 19-160; O00206 24-631, D299G | T399I)
[4] = target: MD-2Flag.His6/FlagTLR4ecd (wild type) complex (human, UniProt Q9Y6Y9 19-160; O00206 24-631)
Chain of MD-2Flag.His6/FlagTLR4ecd (wild type) complex (O00206 24-631, one chain of several): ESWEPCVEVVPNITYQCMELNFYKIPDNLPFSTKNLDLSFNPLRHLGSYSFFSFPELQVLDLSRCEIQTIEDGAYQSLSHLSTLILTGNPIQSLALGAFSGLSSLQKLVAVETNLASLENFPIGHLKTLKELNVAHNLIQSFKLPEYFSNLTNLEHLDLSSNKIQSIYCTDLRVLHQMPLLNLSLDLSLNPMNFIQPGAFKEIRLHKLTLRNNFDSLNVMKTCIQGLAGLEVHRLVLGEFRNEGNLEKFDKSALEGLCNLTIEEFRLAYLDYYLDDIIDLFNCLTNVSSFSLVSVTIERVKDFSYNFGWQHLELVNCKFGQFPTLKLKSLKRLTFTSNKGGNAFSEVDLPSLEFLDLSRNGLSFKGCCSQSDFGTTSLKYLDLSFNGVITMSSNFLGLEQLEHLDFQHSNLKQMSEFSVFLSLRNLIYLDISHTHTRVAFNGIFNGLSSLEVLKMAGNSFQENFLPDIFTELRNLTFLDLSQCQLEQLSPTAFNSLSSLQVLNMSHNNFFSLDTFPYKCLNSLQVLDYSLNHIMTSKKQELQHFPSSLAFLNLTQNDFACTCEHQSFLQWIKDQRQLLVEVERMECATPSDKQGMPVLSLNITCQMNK

Chain of MD-2Flag.His6/FlagTLR4ecd D299G.T399I complex (O00206 24-631 D299G/T399I, one chain of several): as the sequence (O00206 24-631, one chain of several) above, with D276G, T376I counted along it
Chain of FlagTLR4ecd, wild type (extracellular domain of human TLR4, residues 24-631) (O00206 24-631): as the sequence (O00206 24-631, one chain of several) above
Chain of full-length D299G.T399I TLR4 expressed on HEK293T cells without MD-2 (O00206 24-839 D299G/T399I): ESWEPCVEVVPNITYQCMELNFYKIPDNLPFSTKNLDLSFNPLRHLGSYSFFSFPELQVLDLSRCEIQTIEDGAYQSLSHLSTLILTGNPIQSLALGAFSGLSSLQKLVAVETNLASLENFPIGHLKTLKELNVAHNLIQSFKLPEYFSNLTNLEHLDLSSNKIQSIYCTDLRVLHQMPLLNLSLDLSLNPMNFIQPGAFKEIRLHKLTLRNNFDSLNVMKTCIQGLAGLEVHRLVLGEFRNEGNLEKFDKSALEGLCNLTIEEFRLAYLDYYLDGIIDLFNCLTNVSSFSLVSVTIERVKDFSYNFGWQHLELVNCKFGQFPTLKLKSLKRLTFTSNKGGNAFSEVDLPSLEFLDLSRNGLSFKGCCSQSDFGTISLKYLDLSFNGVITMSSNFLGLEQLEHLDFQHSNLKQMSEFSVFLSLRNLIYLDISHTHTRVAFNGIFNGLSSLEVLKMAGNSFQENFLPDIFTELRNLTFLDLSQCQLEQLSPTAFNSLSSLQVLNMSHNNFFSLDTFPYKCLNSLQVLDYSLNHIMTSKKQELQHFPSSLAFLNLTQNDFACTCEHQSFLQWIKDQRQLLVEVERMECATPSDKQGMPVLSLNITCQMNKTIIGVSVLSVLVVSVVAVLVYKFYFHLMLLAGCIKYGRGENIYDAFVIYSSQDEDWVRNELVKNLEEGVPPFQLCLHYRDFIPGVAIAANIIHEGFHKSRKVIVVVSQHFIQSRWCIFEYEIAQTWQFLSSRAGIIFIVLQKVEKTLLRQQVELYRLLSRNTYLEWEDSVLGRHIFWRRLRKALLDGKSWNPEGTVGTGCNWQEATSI

B1: monomeric [3H]LOS·MD-2His6 complex (endotoxin·MD-2) (natural protein)
chain: QKQYWVCNSSDASISYTYCDKMQYPISINVNPCIELKRSKGLLHIFYIPRRDLKQLYFNLYITVNTMNLPKRKEVICRGSDDDYSFCRALKGETVNTTISFSFKGIKFSKGKYKCVVEAISGSPEEMLFCLEFVILHQPNSN
- fold reduction of cell binding against wt TLR4 [1]: ≥ 10 fold
- Kd [2]: 0.221 ± 0.043 nM

B2: monomeric [3H]LOS·sCD14 complex (endotoxin·CD14) (natural protein, UniProt P08571 20-345, looked up)
chain: TTPEPCELDDEDFRCVCNFSEPQPDWSEAFQCVSAVEVEIHAGGLNLEPFLKRVDADADPRQYADTVKALRVRRLTVGAAQVPAQLLVGALRVLAYSRLKELTLEDLKITGTMPPLPLEATGLALSSLRLRNVSWATGRSWLAELQQWLKPGLKVLSIAQAHSPAFSCEQVRAFPALTSLDLSDNPGLGERGLMAALCPHKFPAIQNLALRNTGMETPTGVCAALAAAGVQPHSLDLSHNSLRATVNPSAPRCMWSSALNSLNLSFAGLEQVPKGLPAKLRVLDLSCNRLNRAPQPDELPEVDNLTLDGNPFLVPGTALPHEGSMN
- Kd [3]: 0.186 nM
- Kd [4]: 0.196 nM
